Data from the supplement of paper PMC10724198.
± gives the standard deviation of the averaged measurements.

Test system: Saccharomyces cerevisiae
Experiment: protein stability index of tFT-peptide fusion (C-terminal peptide) (PSI (0-1 scale)); higher = more stable (slower turnover)
Settings: temperature: 30 C
Protocol: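 MPS profiling in S. cerevisiae of the yeast C-terminome library: the last 12 aa of each annotated ORF are fused to the C-terminus of a sfGFP-mCherry timer, after a GGGS linker. Cells are FACS-sorted into 8 mCherry/sfGFP bins and deep-sequenced. PSI runs from 0 (unstable) to 1 (stable); wild type and das1Δ backgrounds, two technical replicates each.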

[1] = genetic background: das1 deletion

Row | Sequence | protein stability index [1] | protein stability index (genetic background: wild type)
1 | CSTRRSYLRYKK [YBR285W C-terminal 12 aa] | 0.705 ± 0.0047 | 0.6634 ± 0.0014
2 | RSIRWFREAGGK [SKI8 C-terminal 12 aa] | 0.695 ± 0.018 | 0.7202 ± 0.0028
3 | AQGGFAQWATGQ [APS3 C-terminal 12 aa] | 0.718 ± 0.0089 | 0.683 ± 0.04
4 | PRGQDTEDHILE [PIF1 C-terminal 12 aa] | 0.725 ± 0.02 | 0.692 ± 0.0098
5 | IFTSGSKSMKDL [ALG6 C-terminal 12 aa] | 0.73 ± 0.01 | 0.671 ± 0.0092
6 | NDDNFDDAQEQQ [SEC2 C-terminal 12 aa] | 0.6977 ± 0.0015 | 0.7002 ± 0.0057
7 | MFLSIQPQEARP [KAP120 C-terminal 12 aa] | 0.72 ± 0.0086 | 0.713 ± 0.011
8 | IPTKKSQMDYFL [PPH3 C-terminal 12 aa] | 0.709 ± 0.029 | 0.753 ± 0.064
9 | AVNALNEAMDKL [BNA5 C-terminal 12 aa] | 0.677 ± 0.015 | 0.696 ± 0.11
10 | YLKEYEFSQKDF [PFS1 C-terminal 12 aa] | 0.725 ± 0.01 | 0.734 ± 0.025
11 | QNARAAFKSTLV [YDR514C C-terminal 12 aa] | 0.707 ± 0.012 | 0.698 ± 0.044
12 | MKGYGFEVPSAN [COX17 C-terminal 12 aa] | 0.6984 ± 0.0041 | 0.663 ± 0.0067
13 | HYSPFYQLPLIF [YGR240C-A C-terminal 12 aa] | 0.683 ± 0.022 | 0.575 ± 0.0067
14 | RDWSSFSKDYEI [PMS1 C-terminal 12 aa] | 0.7561 ± 0.0022 | 0.699 ± 0.0094
15 | LVAEATKKKRHT [DJP1 C-terminal 12 aa] | 0.7115 ± 0.0067 | 0.6936 ± 0.0052
16 | EETLEFDPTLLV [YBL062W C-terminal 12 aa] | 0.707 ± 0.0077 | 0.692 ± 0.023
17 | TIAAGKISEITQ [HBS1 C-terminal 12 aa] | 0.7292 ± 0.0066 | 0.697 ± 0.01
18 | TSDQKNKRTQFS [RPB9 C-terminal 12 aa] | 0.6969 ± 0.0066 | 0.667 ± 0.07
19 | FPRNLAKSVTVE [GFA1 C-terminal 12 aa] | 0.599 ± 0.0094 | 0.593 ± 0.011
20 | ALQKQIKNALPC [PTP2 C-terminal 12 aa] | 0.694 ± 0.024 | 0.69 ± 0.029
21 | DEFIKKNSDKIR [EXO84 C-terminal 12 aa] | 0.676 ± 0.047 | 0.64 ± 0.037

Row | Sequence | protein stability index [1] | protein stability index (genetic background: wild type)
22 | EATIENLKRLKL [VAS1 C-terminal 12 aa] | 0.693 ± 0.016 | 0.642 ± 0.0087
23 | TIEEVKIPGLDI [MRPL50 C-terminal 12 aa] | 0.701 ± 0.0088 | 0.711 ± 0.0074
24 | IYSVIQCLFLHS [YMR141W-A C-terminal 12 aa] | 0.64018 ± 0.00059 | 0.607 ± 0.018
25 | SPYLKHLDSRKQ [CTS2 C-terminal 12 aa] | 0.722 ± 0.019 | 0.7 ± 0.045
26 | VPQLHSFIAKEQ [RMD9 C-terminal 12 aa] | 0.699 ± 0.017 | 0.3 ± 0.0037
27 | IDLVLVVNVLSL [YCR064C C-terminal 12 aa] | 0.425 ± 0.015 | 0.428 ± 0.0062
28 | RTAAESIANDRK [FRD1 C-terminal 12 aa] | 0.674 ± 0.0068 | 0.708 ± 0.05
29 | YAPDVVRSLENL [RRP42 C-terminal 12 aa] | 0.7271 ± 0.0014 | 0.695 ± 0.043
30 | NIILNWIYPYQR [COX18 C-terminal 12 aa] | 0.703 ± 0.033 | 0.778 ± 0.076
31 | HNVCGRAFSLPL [HSL7 C-terminal 12 aa] | 0.7123 ± 0.0037 | 0.677 ± 0.035
32 | SLGSVFTILTDS [YGR228W C-terminal 12 aa] | 0.72 ± 0.0074 | 0.7206 ± 0.0043
33 | NTESSDKGAKIQ [SIN3 C-terminal 12 aa] | 0.701 ± 0.035 | 0.664 ± 0.012
34 | LQLFVNLGCPLS [YDR455C C-terminal 12 aa] | 0.727 ± 0.028 | 0.683 ± 0.019
35 | DKLSWSVRWEPR [URA4 C-terminal 12 aa] | 0.712 ± 0.021 | 0.721 ± 0.022
36 | CLILSQYSILMD [ATG18 C-terminal 12 aa] | 0.631 ± 0.038 | 0.616 ± 0.045
37 | RTNHIYNYENSD [DFG16 C-terminal 12 aa] | 0.703 ± 0.0077 | 0.672 ± 0.011
38 | GEGESIDDKLTD [STB1 C-terminal 12 aa] | 0.6976 ± 0.00096 | 0.733 ± 0.054
39 | SRIKWHVGTAYS [HHY1 C-terminal 12 aa] | 0.6943 ± 0.0031 | 0.6653 ± 0.0066
40 | EGSGEFVGEMEI [MRS6 C-terminal 12 aa] | 0.708 ± 0.0019 | 0.714 ± 0.067
41 | LSHAQKEIYEFK [UTP25 C-terminal 12 aa] | 0.687 ± 0.011 | 0.691 ± 0.056
